According to publication PMC8933513 (2022):
“And” between values parts separate entries of the source, which are not always exact repeats. Identical values can stand only once.

What was measured:
Experiment in all cases: SPR; BIAcore X-100, room temperature; hAPN/pAPN WT or mutant immobilised on CM5 chips via amine coupling; serially diluted PDCoV RBD WT or mutant flowed over in HEPES buffer (0.01 M HEPES, 0.15 M NaCl, 0.5% surfactant P20, 3 mM EDTA, pH 7.4); steady-state affinity model; each of two experiments listed
[1] = target: human aminopeptidase N ectodomain E426A (human) (UniProt P15144)
[2] = target: porcine aminopeptidase N ectodomain W424A (pig) (UniProt P15145)
[3] = target: human aminopeptidase N ectodomain W429A (human) (UniProt P15144)
[4] = target: human aminopeptidase N ectodomain E745A (human) (UniProt P15144)
[5] = target: human aminopeptidase N ectodomain K379A (human) (UniProt P15144)
[6] = target: porcine aminopeptidase N ectodomain, wild type (pig) (UniProt P15145)
[7] = target: human aminopeptidase N ectodomain H789A (human) (UniProt P15144)
[8] = target: human aminopeptidase N ectodomain, wild type (human) (UniProt P15144)
[9] = target: porcine aminopeptidase N ectodomain E421A (pig) (UniProt P15145)
[10] = target: human aminopeptidase N ectodomain E742A (human) (UniProt P15144)
[11] = target: human aminopeptidase N ectodomain Y316A (human) (UniProt P15144)
human aminopeptidase N ectodomain Y316A (human), sequence (P15144 62-963 Y316A): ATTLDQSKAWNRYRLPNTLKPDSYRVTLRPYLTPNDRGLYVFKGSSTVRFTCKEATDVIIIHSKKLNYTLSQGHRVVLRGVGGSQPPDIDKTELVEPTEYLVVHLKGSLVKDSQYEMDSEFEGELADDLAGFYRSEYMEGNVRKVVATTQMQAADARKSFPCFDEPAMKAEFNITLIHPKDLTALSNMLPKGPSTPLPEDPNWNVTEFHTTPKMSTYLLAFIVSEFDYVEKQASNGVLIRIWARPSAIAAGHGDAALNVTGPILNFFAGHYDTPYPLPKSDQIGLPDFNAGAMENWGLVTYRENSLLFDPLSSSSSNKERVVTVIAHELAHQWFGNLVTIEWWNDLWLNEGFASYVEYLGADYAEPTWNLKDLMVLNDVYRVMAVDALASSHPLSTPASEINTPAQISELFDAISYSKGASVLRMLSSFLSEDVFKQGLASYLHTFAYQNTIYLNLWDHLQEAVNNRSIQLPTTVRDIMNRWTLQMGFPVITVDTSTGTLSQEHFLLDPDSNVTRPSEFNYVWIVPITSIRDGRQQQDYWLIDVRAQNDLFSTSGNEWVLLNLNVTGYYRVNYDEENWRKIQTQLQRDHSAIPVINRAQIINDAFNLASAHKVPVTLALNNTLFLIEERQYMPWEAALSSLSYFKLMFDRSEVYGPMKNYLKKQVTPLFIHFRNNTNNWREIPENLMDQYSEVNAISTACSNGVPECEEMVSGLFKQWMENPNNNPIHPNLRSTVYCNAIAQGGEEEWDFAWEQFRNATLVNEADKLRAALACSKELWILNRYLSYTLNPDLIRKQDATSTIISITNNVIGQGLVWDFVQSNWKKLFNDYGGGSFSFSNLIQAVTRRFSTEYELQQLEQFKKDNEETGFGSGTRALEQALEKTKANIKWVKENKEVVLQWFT

human aminopeptidase N ectodomain W429A (human), sequence (P15144 62-963 W429A): as the sequence (P15144 62-963 Y316A) above, with A255Y, W368A counted along it
human aminopeptidase N ectodomain H789A (human), sequence (P15144 62-963 H789A): as the sequence (P15144 62-963 Y316A) above, with A255Y, H728A counted along it
human aminopeptidase N ectodomain E742A (human), sequence (P15144 62-963 E742A): as the sequence (P15144 62-963 Y316A) above, with A255Y, E681A counted along it
human aminopeptidase N ectodomain, wild type (human), sequence (P15144 62-963): as the sequence (P15144 62-963 Y316A) above, with A255Y counted along it
porcine aminopeptidase N ectodomain, wild type (pig), sequence (P15145 58-961): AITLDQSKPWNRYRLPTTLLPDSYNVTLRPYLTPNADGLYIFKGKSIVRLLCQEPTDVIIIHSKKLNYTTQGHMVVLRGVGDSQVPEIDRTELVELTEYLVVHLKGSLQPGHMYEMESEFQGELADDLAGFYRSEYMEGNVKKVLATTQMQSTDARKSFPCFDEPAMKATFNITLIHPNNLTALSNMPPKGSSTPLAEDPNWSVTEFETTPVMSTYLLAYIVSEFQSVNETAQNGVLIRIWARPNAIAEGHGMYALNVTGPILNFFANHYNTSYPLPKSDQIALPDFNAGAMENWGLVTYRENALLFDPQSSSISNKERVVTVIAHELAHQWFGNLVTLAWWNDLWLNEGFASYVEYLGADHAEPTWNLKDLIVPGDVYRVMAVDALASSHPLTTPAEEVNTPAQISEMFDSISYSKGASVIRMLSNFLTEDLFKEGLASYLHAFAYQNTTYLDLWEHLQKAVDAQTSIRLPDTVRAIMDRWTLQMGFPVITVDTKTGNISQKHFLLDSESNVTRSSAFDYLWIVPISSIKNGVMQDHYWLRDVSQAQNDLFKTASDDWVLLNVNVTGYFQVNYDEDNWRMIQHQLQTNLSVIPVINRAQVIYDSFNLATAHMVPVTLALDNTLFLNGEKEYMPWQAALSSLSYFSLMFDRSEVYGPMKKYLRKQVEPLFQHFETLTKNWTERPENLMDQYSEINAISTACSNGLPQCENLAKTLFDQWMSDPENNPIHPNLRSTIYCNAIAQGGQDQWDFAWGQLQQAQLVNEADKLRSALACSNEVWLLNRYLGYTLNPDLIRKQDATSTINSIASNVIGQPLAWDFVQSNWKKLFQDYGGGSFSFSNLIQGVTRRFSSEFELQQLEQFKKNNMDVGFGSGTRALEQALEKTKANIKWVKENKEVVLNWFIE
human aminopeptidase N ectodomain E426A (human), sequence (P15144 62-963 E426A): as the sequence (P15144 62-963 Y316A) above, with A255Y, E365A counted along it
porcine aminopeptidase N ectodomain W424A (pig), sequence (P15145 58-961 W424A): as the sequence (P15145 58-961) above, with W367A counted along it
human aminopeptidase N ectodomain E745A (human), sequence (P15144 62-963 E745A): as the sequence (P15144 62-963 Y316A) above, with A255Y, E684A counted along it
human aminopeptidase N ectodomain K379A (human), sequence (P15144 62-963 K379A): as the sequence (P15144 62-963 Y316A) above, with A255Y, K318A counted along it
porcine aminopeptidase N ectodomain E421A (pig), sequence (P15145 58-961 E421A): as the sequence (P15145 58-961) above, with E364A counted along it

For “PDCoV RBD (receptor binding domain of the porcine deltacoronavirus spike protein), wild type (domain or fragment)”, the Kd [1] was 305 µM and 362 µM, the Kd [2] was 113 µM and 119 µM and the Kd [3] was 158 µM and 97 µM. For the same substance, the Kd [4] was 3.13 µM and 3 µM, the Kd [5] was 516 µM and 371 µM and the Kd [6] was 42 µM and 46.5 µM. The Kd [7] was 6.47 µM and 6.03 µM, the Kd [8] was 3.76 µM and 3.66 µM and the Kd [9] was 103 µM and 146 µM. The Kd [10] was 14.3 µM and 13.2 µM and the Kd [11] was 35.7 µM and 38.5 µM.
